Reference: publication PMC9631991 (Biochemistry, 2022)

Legend:
[1] = biological target: LC3B-115 (residues 1-115) (human, UniProt Q9GZQ8 1-115); experiment: ITC; 25 °C; 20 mM HEPES pH 7.5, 200 mM NaCl, 0.5 mM TCEP; 10~68 uM LC3B proteins in the cell, 10-fold higher concentration of ATG4b in the syringe; single-site binding model; conditions: both partners purified
[2] = biological target: LC3B-I (residues 1-120) (human, UniProt Q9GZQ8 1-120); experiment: as above; conditions: both partners purified
[3] = biological target: pro-LC3B (residues 1-125) (human, UniProt Q9GZQ8 1-120); experiment: cell-based or functional assay

B1: ATG4b WT (full-length ATG4b) (enzyme)
chain: MDAATLTYDTLRFAEFEDFPETSEPVWILGRKYSIFTEKDEILSDVASRLWFTYRKNFPAIGGTGPTSDTGWGCMLRCGQMIFAQALVCRHLGRDWRWTQRKRQPDSYFSVLNAFIDRKDSYYSIHQIAQMGVGEGKSIGQWYGPNTVAQVLKKLAVFDTWSSLAVHIAMDNTVVMEEIRRLCRTSVPCAGATAFPADSDRHCNGFPAGAEVTNRPSPWRPLVLLIPLRLGLTDINEAYVETLKHCFMMPQSLGVIGGKPNSAHYFIGYVGEELIYLDPHTTQPAVEPTDGCFIPDESFHCQHPPCRMSIAELDPSIAVGFFCKTEDDFNDWCQQVKKLSLLGGALPMFELVELQPSHLACPDVLNLSLDSSDVERLERFFDSEDEDFEILSL
- stoichiometry N [1]: 0.9 ± 0.2
- Kd [2]: 4.7 µM
- stoichiometry N [2]: 0.9 ± 0.2

B2: ATG4b-366 (domain or fragment)
chain: MDAATLTYDTLRFAEFEDFPETSEPVWILGRKYSIFTEKDEILSDVASRLWFTYRKNFPAIGGTGPTSDTGWGCMLRCGQMIFAQALVCRHLGRDWRWTQRKRQPDSYFSVLNAFIDRKDSYYSIHQIAQMGVGEGKSIGQWYGPNTVAQVLKKLAVFDTWSSLAVHIAMDNTVVMEEIRRLCRTSVPCAGATAFPADSDRHCNGFPAGAEVTNRPSPWRPLVLLIPLRLGLTDINEAYVETLKHCFMMPQSLGVIGGKPNSAHYFIGYVGEELIYLDPHTTQPAVEPTDGCFIPDESFHCQHPPCRMSIAELDPSIAVGFFCKTEDDFNDWCQQVKKLSLLGGALPMFELVELQPSHLACPDVLN
- fold decrease in KM of cleavage of the FRET substrate CFP-proLC3B-YFP, further fold against ATG4b-382 [3]: 2.6 fold
